The target in this data set is MuvB complex (LIN9 94-542, LIN37, LIN52, LIN54 504-749, RBAP48) (Homo sapiens, UniProt Q5TKA1;Q96GY3;Q52LA3;Q6MZP7;Q09028 94-542;1-246;1-112;504-749;1-425). The data set can be described thus: fluorescence polarization; Kd value only in figure table; FP nucleosomes/601: 50 mM Tris pH 7.5, 150 mM NaCl, 1 mM DTT, 0.1% Tween-20, 20 nM probe (stated for peptide); FP TTK: 20 nM DNA, 20 mM Tris pH 8.0, 150 mM NaCl, 0.1% Tween-20; temperature not stated. As to conditions: protein: recombinant; tags: GST/Strep/His tags removed by TEV; copies: 1;1;1;1;1; label: fluorescein. On the technique in general: In fluorescence polarisation assays a small probe gives low polarisation when free and higher when bound to something large.

B1: TTK promoter 40-bp fragment (dsDNA)
DNA 1: GTGATAGCGACGGGGAAATTCAAACGTGTTTGCGGAAAGG
DNA 2: CCTTTCCGCAAACACGTTTGAATTTCCCCGTCGCTATCAC
Regarding B1, the binding result is “binds”.

The values above are taken from paper PMC8792015, “The MuvB complex binds and stabilizes nucleosomes downstream of the transcription start site of cell-cycle dependent genes”.
